Here are results for one molecule from PMC8699515.

The test has as its target T1, C-reactive protein (CRP) from human pleural fluid (human) (UniProt P02741).
T1 sequence: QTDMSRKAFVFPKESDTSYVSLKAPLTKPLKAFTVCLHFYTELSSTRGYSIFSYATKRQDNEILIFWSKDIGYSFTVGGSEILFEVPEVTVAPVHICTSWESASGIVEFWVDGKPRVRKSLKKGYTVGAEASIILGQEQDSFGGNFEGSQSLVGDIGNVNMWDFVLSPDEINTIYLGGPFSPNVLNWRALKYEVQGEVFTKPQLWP
The test can be described thus: ELISA; phage screening ELISA: CRP 0.25 ug/well coated overnight at 4 C on MaxiSorp, saturated with 3% BSA-PBS; phages in culture supernatant (100 uL, not normalised) 2 h at room temperature; anti-M13 HRP, TMB, absorbance at 450 nm; ratio of the CRP signal to the BSA control, triplicates.

B1: anti-CRP nanobody H7 displayed on phage (VHH)
VHH: EVQLQASGGGLVQAGGSLRLSCAASGRTFSSYATGWYRQAPGKERELVAAISSGGSTYYADSVKGRFTISRDNAKNTVYLQMNSLKAEDTAVYYCAGGRRVGVLIGNEYDYWGQGTLVTVSS
Regarding B1, the Screening ELISA (CRP/BSA Signal) came to 7.1.
